Measurements taken from US20180265552A1 (INSTITUT NATIONAL DE LA RECHERCHE AGRONOMIQUE, published 2018).

Target: TRCP VLP
Assay: titration, native agarose gel mobility shift

B1: Nb23 fused to EGFP (VHH)
VHH: QVQLQESGGGSVQVGGSLRVACAASGDTFSGYLAAWFRQAPGKGREGVAAINSKRHTTSYADSVKGRFTISKDNADNIMYLEMNSLKPEDTAIYYCAAADAIGLAEYWSTPTLSAARYKYWGQGTQVTVSS
molecular ratio between GFLV CP and Nb23:GFP at maximum mobility shift: ~1 Nb23:GFP per CP
